Data as given in patent publication US20250171531A1 (ORIONIS BIOSCIENCES, published 2025).

B1: 'knob-in-hole' Fc-Anti-IL-2 construct (TCB2 scFv_v2-hFc3 + hFc4-OKT8 scFv) (bispecific antibody)
chain 1: DIVMTQSPASLSMAIGEKVTIRCITSTDIDDDMNWYQQKPGEPPKLLISEGNTLRPGVPSRFSSSGYGTDFVFTIENMLSEDVADYYCLQSDNLPYTFGGGTKLEIKGGGGSGGGGSGGGGSEVQLQQSGAELARPGASVKLSCKASGYTFTTYWIQWVKQRPGQGLEWIGAIYPGDGDTRYIQNFKGKATLTADKSSSTAYMQLSSLASEDSAVYYCARSLATRGFYAMDYWGQGTSVTVSSGGSGGSGGSGGSGGSDKTHTCPPCPAPEAAGGPSVFLFPPKPKDTLMISRTPEVTCVVVDVSHEDPEVKFNWYVDGVEVHNAKTKPREEQYNSTYRVVSVLTVLHQDWLNGKEYKCKVSNKALPAGIEKTISKAKGQPREPQVCTLPPSRDELTKNQVSLSCAVKGFYPSDIAVEWESNGQPENNYKTTPPVLDSDGSFFLVSKLTVDKSRWQQGNVFSCSVMHEALHNHYTQKSLSLSPGK
chain 2: not shown
B2: anti-IL-2 Ab NARA1 scFv_VH-VL-3*GGGGS-anti-CD8 OKT8 scFv_VH-VL-6*His (bispecific antibody)
chain: QVQLQQSGAELVRPGTSVKVSCKASGYAFTNYLIEWVKQRPGQGLEWIGVINPGSGGTNYNEKFKGKATLTADKSSSTAYMQLSSLTSDDSAVYFCARWRGDGYYAYFDVWGAGTTVTVSSGGGGSGGGGSGGGGSDIVLTQSPASLAVSLGQRATISCKASQSVDYDGDSYMNWYQQKPGQPPKLLIYAASNLESGIPARFSGSGSGTDFTLNIHPVEEEDAATYYCQQSNEDPYTFGGGTKLEIKGGGGSGGGGSGGGGSEVQLVQSGAEVKKPGASVKVSCKASGFNIKDTYIHWVRQAPGQGLEWIGRIDPANDNTLYASKFQGRATITADTSTSTAYLELSSLRSEDTAVYYCGRGYGYYVFDHWGQGTLVTVSSGGGGSGGGGSGGGGSDVQITQSPSSLSASVGDRVTITCRTSRSISQYLAWYQEKPGKTNKLLIYSGSTLQSGIPSRFSGSGSGTDFTLTISSLQPEDFATYYCQQVNEFPPTFGQGTKVEIKHHHHHH
notes: Single chain of two scFvs with a C-terminal His6 tag
B3: anti-IL-2 Ab NARA1 scFv_VL-VH-3*GGGGS-anti-CD8 OKT8 scFv_VH-VL-6*His (bispecific antibody)
chain: DIVLTQSPASLAVSLGQRATISCKASQSVDYDGDSYMNWYQQKPGQPPKLLIYAASNLESGIPARFSGSGSGTDFTLNIHPVEEEDAATYYCQQSNEDPYTFGGGTKLEIKGGGGSGGGGSGGGGSQVQLQQSGAELVRPGTSVKVSCKASGYAFTNYLIEWVKQRPGQGLEWIGVINPGSGGTNYNEKFKGKATLTADKSSSTAYMQLSSLTSDDSAVYFCARWRGDGYYAYFDVWGAGTTVTVSSGGGGSGGGGSGGGGSEVQLVQSGAEVKKPGASVKVSCKASGFNIKDTYIHWVRQAPGQGLEWIGRIDPANDNTLYASKFQGRATITADTSTSTAYLELSSLRSEDTAVYYCGRGYGYYVFDHWGQGTLVTVSSGGGGSGGGGSGGGGSDVQITQSPSSLSASVGDRVTITCRTSRSISQYLAWYQEKPGKTNKLLIYSGSTLQSGIPSRFSGSGSGTDFTLTISSLQPEDFATYYCQQVNEFPPTFGQGTKVEIKHHHHHH
notes: Single chain of two scFvs with a C-terminal His6 tag; Leader (residues 1-19) left out
B4: anti-IL-2 Ab TCB2 scFv_VH-VL-3*GGGGS-anti-CD8 OKT8 scFv_VH-VL-6*His (bispecific antibody)
chain: EVQLQQSGAELARPGASVKLSCKASGYTFTTYWIQWVKQRPGQGLEWIGAIYPGDGDTRYIQNFKGKATLTADKSSSTAYMQLSSLASEDSAVYYCARSLATRGFYAMDYWGQGTSVTVSSGGGGSGGGGSGGGGSDIVMTQSPASLSMAIGEKVTIRCITSTDIDDDMNWYQQKPGEPPKLLISEGNTLRPGVPSRFSSSGYGTDFVFTIENMLSEDVADYYCLQSDNLPYTFGGGTKLEIKGGGGSGGGGSGGGGSEVQLVQSGAEVKKPGASVKVSCKASGFNIKDTYIHWVRQAPGQGLEWIGRIDPANDNTLYASKFQGRATITADTSTSTAYLELSSLRSEDTAVYYCGRGYGYYVFDHWGQGTLVTVSSGGGGSGGGGSGGGGSDVQITQSPSSLSASVGDRVTITCRTSRSISQYLAWYQEKPGKTNKLLIYSGSTLQSGIPSRFSGSGSGTDFTLTISSLQPEDFATYYCQQVNEFPPTFGQGTKVEIKHHHHHH
notes: as for B3
B5: anti-IL-2 Ab TCB2 scFv_VL-VH-3*GGGGS-anti-CD8 OKT8 scFv_VH-VL-6*His (bispecific antibody)
chain: DIVMTQSPASLSMAIGEKVTIRCITSTDIDDDMNWYQQKPGEPPKLLISEGNTLRPGVPSRFSSSGYGTDFVFTIENMLSEDVADYYCLQSDNLPYTFGGGTKLEIKGGGGSGGGGSGGGGSEVQLQQSGAELARPGASVKLSCKASGYTFTTYWIQWVKQRPGQGLEWIGAIYPGDGDTRYIQNFKGKATLTADKSSSTAYMQLSSLASEDSAVYYCARSLATRGFYAMDYWGQGTSVTVSSGGGGSGGGGSGGGGSEVQLVQSGAEVKKPGASVKVSCKASGFNIKDTYIHWVRQAPGQGLEWIGRIDPANDNTLYASKFQGRATITADTSTSTAYLELSSLRSEDTAVYYCGRGYGYYVFDHWGQGTLVTVSSGGGGSGGGGSGGGGSDVQITQSPSSLSASVGDRVTITCRTSRSISQYLAWYQEKPGKTNKLLIYSGSTLQSGIPSRFSGSGSGTDFTLTISSLQPEDFATYYCQQVNEFPPTFGQGTKVEIKHHHHHH
notes: as for B3

How the values were obtained:
[1] = biological target: CD8alpha on CD8 positive T cells of PBMCs (UniProt P01732 22-235, limits assumed); assay: cell-based or functional assay
[2] = biological target: T1, recombinant IL-2 (Acro Biosystems) (UniProt P60568 21-153); assay: BLI (Octet RED96)
T1 construct: also called Interleukin-2; wild type recombinant IL-2
Excerpt: (§1) In brief, recombinant IL-2 (Acro Biosystems) was biotinylated using the Pierce Antibody Biotinylation Kit for IP (ThermoFisher) and loaded on Streptavidin sensors. […] Sensorgrams and calculated binding kinetics provided in FIG. 2 illustrate that (i) all anti-IL-2 constructs clearly bind to biotinylated IL-2; (ii) for both anti-IL-2 antibody scFv variants, the VL-VH configuration (referred to as scFv_v2) seems to work best; and (iii) TCB2-based anti-IL-2 constructs tend to associate faster, while NARA1 anti-IL-2 constructs dissociate slower.

[3] = biological target: T1, recombinant IL-2 (Acro Biosystems); assay: BLI, biotinylated IL-2 on streptavidin sensors, seven concentrations of construct as analyte
Excerpt: as §1

T1 sequence (P60568 21-153 limits assumed): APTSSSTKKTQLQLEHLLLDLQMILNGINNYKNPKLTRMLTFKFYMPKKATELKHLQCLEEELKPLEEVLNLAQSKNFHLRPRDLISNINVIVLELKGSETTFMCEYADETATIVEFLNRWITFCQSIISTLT
Chain of CD8alpha on CD8 positive T cells of PBMCs (P01732 22-235 limits assumed): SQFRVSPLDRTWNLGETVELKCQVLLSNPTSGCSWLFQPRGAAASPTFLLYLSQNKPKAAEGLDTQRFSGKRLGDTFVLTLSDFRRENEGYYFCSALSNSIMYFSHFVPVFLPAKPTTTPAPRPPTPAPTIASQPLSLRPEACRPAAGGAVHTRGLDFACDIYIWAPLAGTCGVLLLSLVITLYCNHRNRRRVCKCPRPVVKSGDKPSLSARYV

Row | Binder | binding result [3] | further results
1 | B1 |  | IL-2 driven STAT5 phosphorylation in CD8+ over Treg cells [1]: 10 fold
2 | B2 |  | binding result [2]: binds
3 | B3 | binds | 
4 | B4 | binds | 
5 | B5 | binds | 
